Test results published in US20240383990A1.
One block for each binder: values may come before it.

Target: ALK1 / BMPRII receptor pair (BMPR Type I receptor ALK1 and BMPR Type II receptor BMPRII) on cells (UniProt P37023)
Experiment: cell-based or functional assay

ALK1 / BMPRII receptor pair (BMPR Type I receptor ALK1 and BMPR Type II receptor BMPRII) on cells, sequence (P37023 22-503 limits assumed, chain 1 of 2): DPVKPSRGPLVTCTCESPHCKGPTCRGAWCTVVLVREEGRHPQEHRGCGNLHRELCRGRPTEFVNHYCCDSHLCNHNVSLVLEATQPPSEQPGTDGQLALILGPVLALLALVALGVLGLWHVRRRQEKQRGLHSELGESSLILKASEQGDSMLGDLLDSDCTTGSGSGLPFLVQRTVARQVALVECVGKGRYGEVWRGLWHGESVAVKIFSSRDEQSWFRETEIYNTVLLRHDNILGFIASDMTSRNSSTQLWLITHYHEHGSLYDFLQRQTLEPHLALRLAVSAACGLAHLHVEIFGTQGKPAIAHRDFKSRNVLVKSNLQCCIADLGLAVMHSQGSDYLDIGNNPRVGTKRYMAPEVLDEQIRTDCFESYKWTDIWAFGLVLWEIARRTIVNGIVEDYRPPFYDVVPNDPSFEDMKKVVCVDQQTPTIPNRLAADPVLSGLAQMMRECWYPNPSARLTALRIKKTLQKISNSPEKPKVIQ
ALK1 / BMPRII receptor pair (BMPR Type I receptor ALK1 and BMPR Type II receptor BMPRII) on cells, sequence (Q13873 27-1038 limits assumed, chain 2 of 2, further chain): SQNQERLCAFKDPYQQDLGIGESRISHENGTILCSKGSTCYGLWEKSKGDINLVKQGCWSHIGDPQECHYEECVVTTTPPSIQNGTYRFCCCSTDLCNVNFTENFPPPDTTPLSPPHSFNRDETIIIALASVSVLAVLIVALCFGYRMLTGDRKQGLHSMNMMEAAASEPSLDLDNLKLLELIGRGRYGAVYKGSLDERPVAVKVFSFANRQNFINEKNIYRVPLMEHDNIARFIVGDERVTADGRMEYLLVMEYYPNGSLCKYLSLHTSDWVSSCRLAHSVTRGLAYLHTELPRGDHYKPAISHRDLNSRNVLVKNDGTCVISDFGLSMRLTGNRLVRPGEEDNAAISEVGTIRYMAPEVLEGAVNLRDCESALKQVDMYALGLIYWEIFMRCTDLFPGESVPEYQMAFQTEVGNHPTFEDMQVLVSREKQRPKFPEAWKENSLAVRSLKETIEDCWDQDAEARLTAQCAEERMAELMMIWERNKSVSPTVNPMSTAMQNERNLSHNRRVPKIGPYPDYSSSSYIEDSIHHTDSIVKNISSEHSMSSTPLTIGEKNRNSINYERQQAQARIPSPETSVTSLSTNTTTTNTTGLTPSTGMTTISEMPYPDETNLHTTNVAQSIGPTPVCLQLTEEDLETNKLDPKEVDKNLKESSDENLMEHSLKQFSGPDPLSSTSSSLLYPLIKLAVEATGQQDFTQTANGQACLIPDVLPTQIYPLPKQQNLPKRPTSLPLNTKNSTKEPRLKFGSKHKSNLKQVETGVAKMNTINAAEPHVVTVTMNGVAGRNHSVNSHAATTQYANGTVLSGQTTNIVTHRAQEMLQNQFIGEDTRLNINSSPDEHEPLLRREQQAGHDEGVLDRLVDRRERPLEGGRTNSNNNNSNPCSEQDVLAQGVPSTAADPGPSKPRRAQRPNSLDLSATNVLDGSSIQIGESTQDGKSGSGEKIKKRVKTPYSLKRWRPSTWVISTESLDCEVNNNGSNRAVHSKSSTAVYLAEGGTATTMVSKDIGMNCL

Agonist activity, % Emax BMP9: 97 % Emax BMP9
Agonist activity, EC50: 0.1 nM
Agonist activity, EMAX (RLU): 2.57e+06 RLU
B1: BMP10 (ligand, UniProt O95393 317-424, looked up)
chain: NAKGNYCKRTPLYIDFKEIGWDSWIIAPPGYEAYECRGVCNYPLAEHLTPTKHAIIQALVHLKNSQKASKACCVPTKLEPISILYLDKGVVTYKFKYEGMAVSECGCR

Agonist activity, % Emax BMP9: 100 % Emax BMP9
Agonist activity, EC50: 0.02 nM
Agonist activity, EMAX (RLU): 2.64e+06 RLU
pSMAD1 ELISA in HUVEC, RLU 15 minutes, at 0 nM (baseline): 4.9 RLU
pSMAD1 ELISA in HUVEC, RLU 15 minutes, at 0.04 nM: 101 RLU
pSMAD1 ELISA in HUVEC, RLU 15 minutes, at 0.2 nM: 102 RLU
pSMAD1 ELISA in HUVEC, RLU 15 minutes, at 1 nM: 106 RLU
pSMAD1 ELISA in HUVEC, RLU 60 minutes, at 0 nM (baseline): 6.1 RLU
pSMAD1 ELISA in HUVEC, RLU 60 minutes, at 0.04 nM: 81.8 RLU
pSMAD1 ELISA in HUVEC, RLU 60 minutes, at 0.2 nM: 83.2 RLU
pSMAD1 ELISA in HUVEC, RLU 60 minutes, at 1 nM: 81.8 RLU
B2: BMP9 (ligand, UniProt Q9UK05 320-429, looked up)
chain: SAGAGSHCQKTSLRVNFEDIGWDSWIIAPKEYEAYECKGGCFFPLADDVTPTKHAIVQTLVHLKFPTKVGKACCVPTKLSPISVLYKDDMGVPTLKYHYEGMSVAECGCR
